Results on 19 sequences are retold here after the DeepSol protein solubility set.

This series is described as follows: soluble on expression in E. coli; label from the status in PepcDB or PDB records.
As to “MATVDPIRYPIGTFQAPQQFEAGEVQEWIAAIRGLPNDLRTAVSGLNDEQLNTPYRDGGWTVAQVVHHLADASMNAFLRTKWGVTEDGPTVKPFAESEWAKTADACSLPIEPSLLLLDGLHARWAALLESMTEADFHRTVRPEGAAGEMPLYVLTALYAWHGKHHTAQVASLRKRKGW”, the “soluble on expression in E. coli” value is given as “not soluble”.
Next, “MATFNSYTVDEIREIVDPDHPETLLEQAKGWAEMADLLSEYGVLLEQRLELVEDSWTGDAARLYFDEVKRMQEYIEESAERATTNAGLWFLIGTLAGIAKHDVSYIHKLWKDLDNVTDAVGLGFILEAIGVDKAVEDFKRMPYDVASRQIMEATATAAEESYSQMRDFEEFKPPPDVDGSGPTLQSVSAVAPPGGAVSLPSTTIVSNAAMPPLGPVAMRPVVPGVIGSRPGMTSMPRPMMGPGHTVRPVIGQRTGESQQTKTPGRLIGRYGVVSATPDVDMRDPKASRIHYGGDDVNRGVIKNNDPQRAAEEARFKLEEEVLRLRERAFAHRADDLTPAHTQHVLPGIVGDDSGWDRKTHDPGPVAFEMRRRPDRDDDAWTVI”: “not soluble”.
With “MRTILIDWFSDAVREYISRKEAVHLAASLVDRALPMFNIDKMRFQLVGITSMRIAVKYEEIFPPILSNTRHSFDGAILYWKVRLHRRNAHTILDRIMLCTENELGVCRQLLTQGFATSYPSLA” the entry was “not soluble”; with “MAPKDITFVERCYKYIDMNKNNWSPYTVTSTKSWVKNYIEPFFKNLKLTEVNPSSVQAFVNYNFNNSTFTSAKVRYSFLSSVIREAYRLREIQENSCDFIKLPLEHHHHHH”, “soluble”.
For “SRFRFCGDLDCPDWVLAEISTLAKISSVKLRLLCSQVLKELLGQGIDYEKILKLTADAKFESGDVKATVAVLSFILSSAAKHSVDSDSLSSELQQLGLPKEHATSLCRCYEEKQSPLQEHLRACSLRVNRLASVGWRVDYTLSSSLLHSVEEPMVHLQLQVVPAPGTQAQPVSMSLSADKFQVLLAELKQAQTMMTALG”, the “soluble on expression in E. coli” value is listed as “soluble”.
Next, “MKPFLSACLIVKNEEEMLGKCLESLRRVIEEIIVVDTGSTDSTKEIARQFTDKVYDFEWMNDFSEARNFAASKANGEWIIAIDADECVDPDNFKEAIKEIKFHQNKFNMYLVEITSFSGALGENTTVNQMPRIYVNDGTICYKRAIHEQLEAVEGGLRVSLSSLKVYHYGYLSNVVVKQDKKS”: “soluble”; “MSEPIDILIAGAGIGGLSCALALHQAGIGKVTLLESSSEIRPLGVGINIQPAAVEALAELGLGPALAATAIPTHELRYIDQSGATVWSEPRGVEAGNAYPQYSIHRGELQMILLAAVRERLGQQAVRTGLGVERIEERDGRVLIGARDGHGKPQALGADVLVGADGIHSAVRAHLHPDQRPLSHGGITMWRGVTEFDRFLDGKTMIVANDEHWSRLVAYPISARHAAEGKSLVNWVCMVPSAAVGQLDNEADWNRDGRLEDVLPFFADWDLGWFDIRDLLTRNQLILQYPMVDRDPLPHWGRGRITLLGDAAHLMYPMGANGASQAILDGIELAAALARNADVAAALREYEEARRPTANKIILANREREKEEWAAASRPKTEKSAALEAITGSYRNQVERPRLEHHHHHH”: “soluble”; “SVGHLHLQAMGDTREQSRDGLLDSPDSGLPPSPSPSPPFYALSPGTLDTRTTTEAPAAPSLFQTPPALEMRSRLLPVFFGESIEVDPEPAHEIRCNSEITYASERYFRDKIFYAPVPTVTAYSETIVAAPNCTWRSYRSQLTLEPRPRALRFGSTAIIFPKLARSSFRTTLHCSLGQPRHWYSSSLQLRRCGDPTPGPSCPDVL”: “soluble”.
Next, “AFELPPLPYAHDALQPHISKETLEFHHDKHHNTYVVNLNNLVPGTEFEGKTLEEIVKTSSGGIFNNAAQVWNHTFYWNCLSPNAGGQPTGALADAINAAFGSFDKFKEEFTKTSVGTFGSGWGWLVKKADGSLALASTIGAGCPLTIGDTPLLTCDVWEHAYYIDYRNLRPKYVEAFWNLVNWAFVAEQFEGKTYKV”: “soluble”; “SEKRFKVYVYEEGEPPLVHDGPCKSVYAVEGRFITEMEKRRTKFRTYDPNQAYVYFLPFSVTWLVRYLYEGNSDAKPLKTFVSDYIRLVSTNHPFWNRTNGADHFMLTCHDWGPLTSQANRDLFNTSIRVMCNANSSEGFNPTKDVTLPEIKLYGGEVDHKLRLSKTLSASPRPYLGFFAGGVHGPVRPILLKHWKQRDLDMPVYEYLPKHLNYYDFMRSSKFCFCPSGYEVASPRVIEAIYSECIPVILSVNFVLPFTDVLRWETFSVLVDVSEIPRLKEILMSISNEKYEWLKSNLRYVRRHFELNDPPQRFDAFHLTLHSIWLRRLNLKLT”: “soluble”; “MSELSFAQLLEESFAATPRLGDVVKGTVVAIQKGYVIVDTGFKSESSIPAEEFINAQGELEVQIGDQVDVVLKAVEDGFGETVVSRGDAKRNEAWIALEKAFEEQATVIGFVNGKVKGGFTVELNGVRAFLPGSLVDTRPVRDSLNLEGKELEFKVIKLDQKRNNVVVSRRAVIESENSQDRDEVLANLVEGSVITGTVKNLTDYGAFVDLGGVDGLLHITDMAWKRVKHPSEVVAVGQEVTVKVLKFDKEKTRVSLGLKQLGQDPWAAIAHNHPVNSKLTGKVTNLTDYGCFVEILDGVEGLVHVSEMDWTNKNIHPSKVVSVGDVVEVMVLEVDEERRRISLGLKQCKANPWEHFAATHNKNDKVTGKIKSITDFGIFIGLEGGIDGLVHLSDISWNVTGEEAVRNYKKGDEVEAVVLQVDAAKERISLGIKQLESDPFTNFVDSTKKGAILTGKVVDVDTKGVKVELEGGVEAFIRANEATRERVEDITTVISVGDSIEAKYTGIDRKSRLVNLSVRAKDEAEESAALAQVNKQDVEMPNAMTAAFQAAKGELEHHHHHH”: “soluble”.
Next, “MGSDKIHHHHHHMQEMILLQQKVDETIRALGGYFRPLSGLARLIEEVGEVGEALETGDELSFQAELVDVLMISTCLANQYVTDLAQQHQQLGTMEDEGQGSFYRLVHEAGQVARVMNGYEGDKPPKQTEDIIPIGMSLARLQRELFRLVRPHGINLLQEIDRTNEKNLNRDRKRFALTRDPVTEATIDHFRSATGNTERLWGAPAYESDLALEAHIQAALPSLRRFLRCARIEGIAGFVIEAPMERTDSLRSVKDQADEIGRIVKEQTPLSFKEAPYRIDVYAPQLGPVSPYHAEDDHRMFLVLHVDE”: “not soluble”; “MGHHHHHHSHMIKYYNRKTKQYEIEKVAGENYLNWTYSSPIGMSFLEALIKKKAFSSIYGSFCDSKISKGKVKKFIDSFDIDILESEKKPEAFKSFNDFFTRKLTKEARPFSTNKEILISPGDGRLLVYENIDLDNLVEIKGMGYSLKELIKDEKISSKYKNGICMILRLCPTDYHRFHFVDSGVCSATSKIKGSYYSVNPIALNKVKRLFCENKREWSILKSDNFKDILYIEVGATCVGSIIQTYKENTKVNKGDEKGYFKFGGSTVVLFFEKDSVKIDEDILEQTRLGYETKVFMGESIGKK”: “soluble”.
With “MRGRPIELEPWQQFAFACILGFKVKATGRRKYTSAFIEVPRKNAKSTTAAILANWFLIMENGQQDIYTAAVSRDQARIVFDNARQMCLLSRPLRRRVNIQAHKVIHPKSNSLLKPLAAKAATIEGTNPSLSIVDEYHLHPDNGVYSALELGMGARPEGLLFAITTSGSNVVSACKQHYDYCCQILDGEEVNDSIFVLIYELDDENEVDDPAMWIKANPNIDVSVDREKLASTIQKARGIPSQWVEMMTKRFNIWCQGTTPWMGNGAWAECAGTFTEEDLHGQECYAGLDLSSTSDISSVCYAFPVGKTIMLISRHYLPEFQLQNPANKNRAVYRQWAKAGWIRTTPGDCIDYDRIRDDIMQDAEKFNIRLVGFDTWNATHLRTQLQGAGFEVEPFPQTYLRFSPAAKSFEVFVNRRVIVHRGDPVLSWSMSNVVMQSDANANIKPNKKKSPNKIDPSVAALMAFGTFQAEHEDFAFDISDSHRQKLEEFSGV”, the “soluble on expression in E. coli” value is reported as “not soluble”.
For “MGSDKIHHHHHHMNAVPQWRLAGDWFDICSCDIPCPCEFAQRPTGNHCQGVLAWHVREGQYGDVKLDGLTLVALGEFEGNLWAGEAKAVMGMYLDEKANESQREALQAIFGGHAGGWPAGFAANVGEMRGMEFVPITFEVAGDLATWRVEIPGLVVGRVEALSGPTTPPGKRVQTINPPGSEVGPGQVATWGRSVEVSTKGFGLDWIGTARSSKHIPFDWTGPS”, the “soluble on expression in E. coli” value is reported as “not soluble”.
As for “MRGSPRTKDRLAALKAAVSDEEDVEEVAVQVDSGGGFMEEFFEQVEEIRAMIDKISDNVDAVKKKHSDILSAPQTDDQMKEELEELMTDIKRTANKVRGKLKTIELNIEQEEHSNKSSADLRIRKTQYSTISRKFVEVMSDYNTTQIDYRDRCKARIKRQMEITGRTTTNEELEDMLESG”, the “soluble on expression in E. coli” value is “soluble”.
With “AVKRRPRFPVNSNSNGGNELCPKIRIGQDDLPGFDLISQFQVDKAASRRAIQRVVGSATLQVAYKLGNNVDFRIPTRNLYPSGLPEEYSFLTTFRMTGSTLKKNWNIWQIQDSSGKEQVGIKINGQTQSVVFSYKGLDGSLQTAAFSNLSSLFDSQWHKIMIGVERSSATLFVDCNRIESLPIKPRGPIDIDGFAVLGKLADNPQVSVPFELQWMLIHCDPLRPRRETCHELPARITPSQTTDER” the entry was “soluble”.
In the case of “MSLSDQSQIIAGFTLWHLSLPVTARRDHGIGSVAGAVEVVVLRLQADSGAVGYGEASPWVVFTGSVEATYAALDRYLRPLVLGRAVGDHAAIMEDARAAVAHCTEAKAALDTALYDLRARIAGVPVWALLGGRCRDRIPLSCSIADPDFDKDLALMQRLQDDDVRIIKLKTGFKDHAFDMMRLERLRADFPAFDIRVDYNQGLHHDVALARVRDVATFKPTFIEQPVKAHLRGLMARIRDAVDVPLLADESIFGPEDMAEHPEIADGVSIKIMKSGGLTRAQTVARMAAARGLSAYGGDMFEAGLAHLAGAHMIAATPEITLGCEFYQATYFLCDDILAAPFPVADGHVLVPDTPGLGVDVDEDALARFAVAREGHHHHHH”, the “soluble on expression in E. coli” value was “soluble”.
Next, “MVVEMLGKLKEKLQSFIRRVEENVEKEEDEAKKKGLLDKILMIEIKEKDIEEALEDLELELLEADVALEVVDELKDRIKRNLVGKKVRIGTNKEKIIEEAVRKAVLEILTPEKKMDLLEEIKKAEKPYVILFVGFNGSGKTTTIAKLAHWLKKNGFSVVIAASDTFRAGAIEQLEEHAKKVGVKVIKHKYGADPAAVAYDAIQHAKARGIDVVLIDTAGRSETNRNLMDEMKKIARVTKPNLVIFVGDSLAGNAIVEQARQFNQAVKIDGVILTKLDADARGGAALSISHVINAPILFVGIGQGYEDLIPFDERWFVEKILGEESA”: “soluble”.
